Assay results reported in PMC5913336, “True equilibrium measurement of transcription factor-DNA binding affinities using automated polarization microscopy”.

Key:
Bicoid DBD-GST (Bcd) [1] = target: T1, Bicoid DBD-GST (Bcd) (UniProt P09081 83-170); assay: competitive fluorescence anisotropy (HiP-FA); mean of replicates 6.544, 6.784; HiP-FA: 33 mM phosphate pH 7.0, 90 mM NaCl, 0.01% Tween 20, 0.1 mM DTT, 0.5% agarose; conventional titration and EMSA: 20 mM Tris-acetate pH 7.0, 50 nM (sic) NaCl, 0.01% Tween-20, 0.1 mM DTT; conditions: protein: recombinant; tags: N-terminal GST; blunt
T1 sequence: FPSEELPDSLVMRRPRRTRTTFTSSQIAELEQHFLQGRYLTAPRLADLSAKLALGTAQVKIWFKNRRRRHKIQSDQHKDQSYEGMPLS

Bicoid DBD-GST (Bcd) [2] = target: T1, Bicoid DBD-GST (Bcd); assay: competitive fluorescence anisotropy (HiP-FA); mean of replicates 2.884, 2.6855; HiP-FA: 33 mM phosphate pH 7.0, 90 mM NaCl, 0.01% Tween 20, 0.1 mM DTT, 0.5% agarose; conventional titration and EMSA: 20 mM Tris-acetate pH 7.0, 50 nM (sic) NaCl, 0.01% Tween-20, 0.1 mM DTT; conditions: protein: recombinant; tags: N-terminal GST; blunt, G:G mismatch at position 6
Bcd homeodomain [3] = target: T2, Bcd homeodomain (Drosophila melanogaster, UniProt P09081-2 77-166); assay: FP; binding buffer, no gel; conditions: tags: N-GST (pGEX-6P-1, kept); label: 5' Cy5 on strand 1
T2 sequence: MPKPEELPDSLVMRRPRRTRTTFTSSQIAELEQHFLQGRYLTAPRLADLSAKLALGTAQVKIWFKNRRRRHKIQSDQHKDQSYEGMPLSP

Bicoid DBD-GST (Bcd) [4] = target: T1, Bicoid DBD-GST (Bcd); assay: competitive fluorescence anisotropy (HiP-FA); mean of replicates 3.751, 3.7605; HiP-FA: 33 mM phosphate pH 7.0, 90 mM NaCl, 0.01% Tween 20, 0.1 mM DTT, 0.5% agarose; conventional titration and EMSA: 20 mM Tris-acetate pH 7.0, 50 nM (sic) NaCl, 0.01% Tween-20, 0.1 mM DTT; conditions: protein: recombinant; tags: N-terminal GST; blunt, G:G mismatch at position 6
Bicoid DBD-GST (Bcd) [5] = target: T1, Bicoid DBD-GST (Bcd); assay: competitive fluorescence anisotropy (HiP-FA); mean of replicates 6.092, 5.6175; HiP-FA: 33 mM phosphate pH 7.0, 90 mM NaCl, 0.01% Tween 20, 0.1 mM DTT, 0.5% agarose; conventional titration and EMSA: 20 mM Tris-acetate pH 7.0, 50 nM (sic) NaCl, 0.01% Tween-20, 0.1 mM DTT; conditions: protein: recombinant; tags: N-terminal GST; blunt
Bicoid DBD-GST (Bcd) [6] = target: T1, Bicoid DBD-GST (Bcd); assay: competitive fluorescence anisotropy (HiP-FA); mean of replicates 5.027, 4.3975; HiP-FA: 33 mM phosphate pH 7.0, 90 mM NaCl, 0.01% Tween 20, 0.1 mM DTT, 0.5% agarose; conventional titration and EMSA: 20 mM Tris-acetate pH 7.0, 50 nM (sic) NaCl, 0.01% Tween-20, 0.1 mM DTT; conditions: protein: recombinant; tags: N-terminal GST; blunt, G:G mismatch at position 6
Bcd homeodomain [7] = target: T2, Bcd homeodomain; assay: EMSA; 20 mM Tris-acetate pH 7.0, 50 "nM" NaCl as printed (probably mM), 0.01% Tween 20, 0.1 mM DTT, 10% glycerol; room temperature; 4 nM probe; conditions: tags: N-GST (pGEX-6P-1, kept); label: Cy3
Bicoid DBD-GST (Bcd) [8] = target: T1, Bicoid DBD-GST (Bcd); assay: competitive fluorescence anisotropy (HiP-FA); mean of replicates 3.961, 3.634; HiP-FA: 33 mM phosphate pH 7.0, 90 mM NaCl, 0.01% Tween 20, 0.1 mM DTT, 0.5% agarose; conventional titration and EMSA: 20 mM Tris-acetate pH 7.0, 50 nM (sic) NaCl, 0.01% Tween-20, 0.1 mM DTT; conditions: protein: recombinant; tags: N-terminal GST; blunt, G:G mismatch at position 6
Bicoid DBD-GST (Bcd) [9] = target: T1, Bicoid DBD-GST (Bcd); assay: competitive fluorescence anisotropy (HiP-FA); mean of replicates 4.889, 5.1445; HiP-FA: 33 mM phosphate pH 7.0, 90 mM NaCl, 0.01% Tween 20, 0.1 mM DTT, 0.5% agarose; conventional titration and EMSA: 20 mM Tris-acetate pH 7.0, 50 nM (sic) NaCl, 0.01% Tween-20, 0.1 mM DTT; conditions: protein: recombinant; tags: N-terminal GST; blunt, C:C mismatch at position 6 as printed
Bicoid DBD-GST (Bcd) [10] = target: T1, Bicoid DBD-GST (Bcd); assay: competitive fluorescence anisotropy (HiP-FA); mean of replicates 5.163, 4.995; HiP-FA: 33 mM phosphate pH 7.0, 90 mM NaCl, 0.01% Tween 20, 0.1 mM DTT, 0.5% agarose; conventional titration and EMSA: 20 mM Tris-acetate pH 7.0, 50 nM (sic) NaCl, 0.01% Tween-20, 0.1 mM DTT; conditions: protein: recombinant; tags: N-terminal GST; blunt, G:G mismatch at position 6
Bicoid DBD-GST (Bcd) [11] = target: T1, Bicoid DBD-GST (Bcd); assay: competitive fluorescence anisotropy (HiP-FA); mean of replicates 2.816, 2.505; HiP-FA: 33 mM phosphate pH 7.0, 90 mM NaCl, 0.01% Tween 20, 0.1 mM DTT, 0.5% agarose; conventional titration and EMSA: 20 mM Tris-acetate pH 7.0, 50 nM (sic) NaCl, 0.01% Tween-20, 0.1 mM DTT; conditions: protein: recombinant; tags: N-terminal GST; blunt, G:G mismatch at position 6

B1: Bcd competitor 5 (G2T) (dsDNA)
DNA 1: TCGACTGTAATCCCTA
DNA 2: TAGGGATTACAGTCGA
Work on B1 yielded a Kd (Bicoid DBD-GST (Bcd) [1]) of 6.66 nM.

B2: Bcd competitor 7 (G3C) (dsDNA)
DNA 1: TCGACGCTAATCCCTA
DNA 2: TAGGGATTAGGGTCGA
B2 gave a Kd (Bicoid DBD-GST (Bcd) [2]) of 2.79 nM.

B3: Bcd Cy5 reference (dsDNA)
DNA 1: TCGACGCTAAGCTGTA
DNA 2: TACAGCTTAGCGTCGA
For B3, the koff (Bcd homeodomain [3]) was 0.41 s⁻¹.

B4: Bcd competitor 3 (C1A) (dsDNA)
DNA 1: TCGAAGGTAATCCCTA
DNA 2: TAGGGATTACGTTCGA
B4 showed a Kd (Bicoid DBD-GST (Bcd) [4]) of 3.76 nM.

B5: Bcd competitor 6 (G2A) (dsDNA)
DNA 1: TCGACAGTAATCCCTA
DNA 2: TAGGGATTACTGTCGA
B5 was tested, and the Kd (Bicoid DBD-GST (Bcd) [5]) was 5.86 nM.

B6: Bcd competitor 33 (T11A) (dsDNA)
DNA 1: TCGACGGTAATCCCAA
DNA 2: TTGGGATTACGGTCGA
B6 was tested, and the Kd (Bicoid DBD-GST (Bcd) [6]) was 4.71 nM.

B7: Bcd EMSA probe (dsDNA)
DNA 1: TCGACCGTAATCCCTA
DNA 2: TAGGGATTACGGTCGA
Binder B7 has a Kd (Bcd homeodomain [7]) of 1.8 ± 0.2 nM.

B8: Bcd competitor 31 (T11C) (dsDNA)
DNA 1: TCGACGGTAATCCCCA
DNA 2: TGGGGATTACGGTCGA
Binder B8 has a Kd (Bicoid DBD-GST (Bcd) [8]) of 3.8 nM.

B9: Bcd competitor 4 (G2C) (dsDNA)
DNA 1: TCGACCGTAATCCCTA
DNA 2: TAGGGATTACCGTCGA
Work on B9 yielded a Kd (Bicoid DBD-GST (Bcd) [9]) of 5.02 nM.

B10: Bcd competitor 32 (T11G) (dsDNA)
DNA 1: TCGACGGTAATCCCGA
DNA 2: TCGGGATTACGGTCGA
Work on B10 yielded a Kd (Bicoid DBD-GST (Bcd) [10]) of 5.08 nM.

B11: Bcd competitor 2 (C1T) (dsDNA)
DNA 1: TCGATGGTAATCCCTA
DNA 2: TAGGGATTACGATCGA
B11 showed a Kd (Bicoid DBD-GST (Bcd) [11]) of 2.66 nM.
